The supplement of paper PMC9170038

System: MS2 coat protein
Assay: apparent KD of MS2 coat protein; designed switch direction (-1 OFF switch, 1 ON switch): -1; higher = weaker reporter binding
Method in brief: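 Each step of the titration lasted 0.8–1.5 h at the lowest concentration and 10–20 min at the highest. The protein, SNAP-549-labelled MS2 coat protein, went from 0.7 or 1.5 nM doubling to 3 µM over RNA switches transcribed on Illumina chips by stalled E. coli RNA polymerase. Normalised cluster fluorescence was curve-fitted, and the per-design median over clusters is given as apparent KD.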

[1] = input ligand: microRNA oligo, concentration not stated
[2] = Eterna round: R95, input ligand: FMN 200 uM
[3] = Eterna round: R95, input ligand: microRNA oligo, concentration not stated
[4] = Eterna round: R95, input ligand: none

Row | Sequence | apparent KD of MS2 coat protein (input ligand: FMN 200 uM) | apparent KD of MS2 coat protein (input ligand: none) | apparent KD of MS2 coat protein [1] | apparent KD of MS2 coat protein [2] | apparent KD of MS2 coat protein [3] | apparent KD of MS2 coat protein [4]
1 | AAAUCGUGAGGAUAUCCAAUAUAUGACAUGAGGAUCACCCAUGUUUCCACUCGUACCUCCGGAGAAGGCACAAUAA [Ex5 #75] (Eterna round: R97, puzzle: Exclusion 5) | 27.2 nM | 27.1 nM | – | – | – | –
2 | AUCGUGCAGCUUUGCUGUACGAGUACAUGAGGAUCACCCAUGUAGGAUAUGGUACGCUUUGCGUGCUAGAAGGAUAUGUGUUAG [EX ENG3 1.43] (Eterna round: R96, puzzle: Exclusion NG 3) | 46.6 nM | 44.2 nM | 34.8 nM | – | – | –
3 | GAGAAACAUGAGGAUCACCCAUGUGAGGAUAUGAAAAAGAAAAGAAAAGAAAGAAGAAUCAGAAGGCACAAAGG [salish99-ex1_r3_078] (puzzle: Exclusion 1) | – | – | – | 45.3 nM | 30.8 nM | 39.1 nM
4 | AGUUGGCGAGGAUAUACAUGAGGAUCACCCAUGUGAGAGAUACUAGUGAGGUCGAUUGGUAGAAGGCGCUGACA [Mat - Exclusion 3 - Mod of JL D80] (puzzle: Exclusion 3) | – | – | – | – | 91.5 nM | –
5 | CCGUCAUCAGGAUAUCCACAUCUCUACAUGAGGAUCACCCAUGUAAGCUUGGGUAAUAGCGGAGAAGGGAUAGACU [Eternabot (Original) Solution 20] (Eterna round: R97, puzzle: Exclusion 5) | 78.2 nM | 57.5 nM | – | – | – | –
6 | CGUGAGUCAGGAUAUGCCUGUACUAACUUGAGGAUCACCCAAGUGUCCUCCCGGUGCAAUGCAGAAGGGACGACGA [Oninlein] (Eterna round: R97, puzzle: Exclusion 5) | 765 nM | 74.2 nM | – | – | – | –
7 | AGCUGUGGCCGAGGAUAUCUAAAUUCUCAAAACGAAAUAUAAUCGAACAUGAGGAUCACCCAUGUAGAGAAGGCGGUCUCAGCA [Eli eng2 - 032] (Eterna round: R96, puzzle: Exclusion NG 2) | – | – | 34.6 nM | – | – | –
8 | AAGAAACAUGAGGAUCACCCAUGUGAGGAUAUGUAAAAGAAAAGAAAAUAAAGAAGAAACAGAAGGCACAAAGG [Mat - Mod of Hog D21] (Eterna round: R96, puzzle: Exclusion 1) | – | – | 30.9 nM | – | – | –
9 | AAACCUGCCCAUGACCGCAAGCUUUUUGCUUGUCUUACCACAUGAGGAUCACCCAUGUGACAUGGGCUCCUUAUAAA [Usteorrila] (puzzle: Sensor v3, turn-off variant 2) | – | – | – | 12.7 nM | 9.84 nM | 11.5 nM
10 | UUAAUACAUGAGGAUCACCCAUGUCAGGAUAUCCGUAUUUCUUAUAUAUAUUUCUAUCGGAGAAGGGACACAUU [lam1] (Eterna round: R97, puzzle: Exclusion 1) | 50.9 nM | 45.4 nM | – | – | – | –
11 | GUGAAACAUGAGGAUCACCCAUGUGAGGAUAUGUUUUAGUAAUGAUGAAAGUAAAUCUACAGAAGGCACAAUGG [Mat - Mod of JL D70] (puzzle: Exclusion 1) | – | – | – | – | 77.9 nM | –
12 | UAUGUCUUUGUGAGGAUAUACUUUGUUUGGUCGUAGUAGAAGGCACAUGAGGAUCACCCAUGUAGAUUUUUGGU [JR_BME4_Sub011] (puzzle: Brourd's mod of Exclusion 4) | – | – | – | – | 20.1 nM | –
13 | AAGAAACAUGAGGAUCACCCAUGUGAGGAUAUGAAAAAGAAAAGAAAAGAAAGAAGGUUCAGAAGGCACAAAGG [salish99-ex1_r3_027] (puzzle: Exclusion 1) | – | – | – | 48.6 nM | 45.8 nM | 28.5 nM
14 | UAAAAGCGAGGAUAUACAAACAGGUCCAAAACAUGUCUUGGACAUGAGGAUCACCCAUGUAGAAGGCGUAAAAG [Anleain] (Eterna round: R97, puzzle: Exclusion 2) | 558 nM | 90.6 nM | – | – | – | –
15 | CAUGUGUUAGGAUAUGCACAGAUCUCCUAAUGGAGAUCUGUGCAGAAGGAACAUGAGGAUCACCCAUGUUGAUG [Mod of Brourd 13 - Jieux - Exclusion 4] (Eterna round: R97, puzzle: Exclusion 4) | 129 nM | 35.4 nM | – | – | – | –
16 | AGCCCUGCAGGAUAUGCCCGGGAUAACAUGAGGAUCACCCAUGUGACCGAUUGUUAUCCUGCAGAAGGGCAUGGGA [JL-EX5-4.12 ViennaUCT mod] (Eterna round: R97, puzzle: Exclusion 5) | 172 nM | 161 nM | – | – | – | –
17 | GCUGGACGAGGAUAUACAUGAGGAUCACCCAUGUGAUCAGCAGUCCUCGGACUGCAAUGUAGAAGGUGUCCAGC [E3/1-B2] (Eterna round: R97, puzzle: Exclusion 3) | 302 nM | 2320 nM | – | – | – | –

Row | Sequence | apparent KD of MS2 coat protein (input ligand: FMN 200 uM) | apparent KD of MS2 coat protein (input ligand: none) | apparent KD of MS2 coat protein [1] | apparent KD of MS2 coat protein [2] | apparent KD of MS2 coat protein [3] | apparent KD of MS2 coat protein [4]
18 | GGUAUAUGAGGAUAUAGAUUCCUCGACAUGAGGAUCACCCAUGUAAGAUUGGGCCUAGAACUAGAAGGCGUGGCUU [Eternabot (L1) Solution 77] (Eterna round: R97, puzzle: Exclusion 5) | 72.1 nM | 128 nM | – | – | – | –
19 | AGAUGUAGAUACCGAUCCUACAUGAGGAUCACCCAUGUAGCUAGACGUGCUCGCGUCGCUCGUCAGACUACCAGUAG [salish99_TOv1_r3_089] (puzzle: Sensor v3, turn-off variant 1) | – | – | – | 267 nM | 199 nM | 259 nM
20 | AGUCCGUCAGGAUAUGCAAUUGUGGACAUGAGGAUCACCCAUGUAACGUGGGCAUGGUUUGUAGAAGGGACGUGCA [EX5 #92] (Eterna round: R97, puzzle: Exclusion 5) | 129 nM | 95.3 nM | – | – | – | –
21 | GGUCAAGAACAGAUCCGCGCUGCCCUCGACCGCUCAUUUACAUGAGGAUCACCCAUGUUUUUUGCUUGUCUUGUUAC [Vezageis] (puzzle: Sensor v3, turn-off variant 2) | – | – | – | 17.2 nM | 57 nM | 17.1 nM
22 | CGCAAAAGGAAGGAUAUGCUAGACGAAAGUCUAGCAGAAGGUCCUACAUGAGGAUCACCCAUGUGUCCUAUGCG [Mat - Exclusion 6 - Eli Mod - D11] (Eterna round: R97, puzzle: Exclusion 6) | 63.1 nM | 46.6 nM | – | – | – | –
23 | CUGAUGUGAGGAUAUCUACGCCAAGUGUUUCACUUGGCGCAAGAGAAGGCACAUGAGGAUCACCCAUGUACUUC [jl-ex4-4.37 ViennaUCT mod] (Eterna round: R97, puzzle: Exclusion 4) | 137 nM | 22.8 nM | – | – | – | –
24 | GGUCCGAGUGUGAGGAUAUGCUGGUCCUUGGAUCAGCAGAAGGCACAUGAGGAUCACCCAUGUGAAGACGGACC [Mat - Exclusion 4 - Eli Mod - D30] (Eterna round: R97, puzzle: Brourd's mod of Exclusion 4) | 537 nM | 91.5 nM | – | – | – | –
25 | GGUCGUAUGAGUAGUCCUCAUUGAAGAGAUUGGUAAGAUACAUGAGGAUCACCCAUGUUUGAACAAGCUUUUGCUCU [JR_Sv3TOV2_Sub008] (puzzle: Sensor v3, turn-off variant 2) | – | – | – | 96 nM | 41.9 nM | 120 nM
26 | GGACAUAAAGUCAGGAUAUUAAGGCGAACAAGCGAUGAGAAGGGACAUGAGGAUCACCCAUGUGAUUCUCAUCA [Isedzaor] (Eterna round: R97, puzzle: Brourd's mod of Exclusion 4) | 20.5 nM | 14 nM | – | – | – | –
27 | GUUGUAUGAGGAUAUACAUGAGGAUCACCCAUGUGUGUUGUGAACGACGUACGUUUAUGUAGAAGGCGUGCGGC [-24.9, -21.8 kcal, 24% A] (Eterna round: R97, puzzle: Exclusion 3) | 18.2 nM | 17.9 nM | – | – | – | –
28 | AUAGAUCGAGUUAGGAUAUUGCAGGCCGAGUACAGCAAGAAGGAACAUGAGGAUCACCCAUGUAAACGUGGCUC [Eternabot (L1) Solution 53] (Eterna round: R97, puzzle: Brourd's mod of Exclusion 4) | 25.9 nM | 17.7 nM | – | – | – | –
29 | CGUGUACUGCAGGAUAUCCUAGAUGCGGACAUCGGAGAAGGGCAGACAUGAGGAUCACCCAUGUGUGGCGGAGA [EX6 B.16] (Eterna round: R97, puzzle: Exclusion 6) | 221 nM | 67.3 nM | – | – | – | –
30 | GUCAGUAUAUAACAAGCAUACAUGAGGAUCACCCAUGUGCGCGGAAAGCGUUUCCGCGCAUAUCGUUCCUAGCUCGG [Eternabot (Original) Solution 14] (Eterna round: R97, puzzle: Sensor, turn-off variant 1) | 419 nM | 505 nM | – | – | – | –
31 | UUAAUAAUGUAAGGAUAUGCGUGGCGAAGCUAUGCAGAAGGUACAUGAGGAUCACCCAUGUGGUCCGUCUGCGUACAGAUGGAA [JL Eng1 1.08 mod] (Eterna round: R96, puzzle: Exclusion NG 1) | 756 nM | 365 nM | 319 nM | – | – | –
32 | GCGACGCUACAUGAGGAUCACCCAUGUCCUCACAUGAGAUGGUAGGAUAUUAUAUAUACAUUGUGUGAGAAGGAUCAUCGCCCA [Eternabot solution 2] (Eterna round: R96, puzzle: Exclusion NG 3) | 351 nM | 121 nM | 74.8 nM | – | – | –
33 | CUGGUCCGAGGAUAUAUUAUGUGAUACAUGAGGAUCACCCAUGUUAUAUGAUGGAUAUAAAUAGAAGGCGGACUAG [Mat - Exclusion 5 - JL mod - D66] (puzzle: Exclusion 5) | – | – | – | 48.6 nM | 42.4 nM | 35.8 nM
34 | GGUGCGUUUGUGAGGAUAUGCUGGUCCUUGGAUCAGCAGAAGGCACAUGAGGAUCACCCAUGUGGUGUCCCUCC [salish99_Bmod_Ex4_040] (puzzle: Brourd's mod of Exclusion 4) | – | – | – | – | 154 nM | –
